Values quoted from earlier work as cited in paper PMC7390727.
Where two headings read alike, the source gives them in different places.

Columns and labels:
[1] = molecular target: chemoreceptor C-terminal pentapeptide (Salmonella typhimurium)
[2] = molecular target: chemoreceptor C-terminal pentapeptide (Salmonella typhimurium); remark: listed apart in the source

Substance	Kd [1]	Kd [2]
CheB (from UniProt P04042)	160 µM	
CheR (from UniProt P07801)		2 µM
